This is an account of results in US20210130452A1 (Merck KGaA, published 2021).

In one assay the target is guinea pig IL-17A (guinea pig). Kind of assay: ELISA, coated IL-17A.
Assay [1] has as its target T1, human IL-17A (human, UniProt Q16552 24-155).
T1 construct: secreted form (GenBank U32659) expressed in Hek293 with C-terminal 6-His; also called hIL-17A; IL-17A-6HIS
The assay can be described thus: ELISA, coated IL-17A.
T1 sequence (Q16552 other isoform, or with tags, fused parts or gaps): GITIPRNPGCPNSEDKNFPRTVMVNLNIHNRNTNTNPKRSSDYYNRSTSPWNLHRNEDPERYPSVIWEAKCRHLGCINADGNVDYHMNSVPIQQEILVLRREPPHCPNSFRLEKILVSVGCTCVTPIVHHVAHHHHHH
Protocol: (§1) Binding of a selected panel of anti-IL-17 Nanobodies to IL-17 of other species was assessed using a binding ELISA. […] HRP (horseradish peroxidase) conjugated anti-myc (Serotec, MCA 2200P) was used for detection using esTMB as substrate.

Another assay deals with T2, marmoset IL-17A (marmoset, IL-17A is a disulfide-linked homodimer. One chain is given.).
T2 chain: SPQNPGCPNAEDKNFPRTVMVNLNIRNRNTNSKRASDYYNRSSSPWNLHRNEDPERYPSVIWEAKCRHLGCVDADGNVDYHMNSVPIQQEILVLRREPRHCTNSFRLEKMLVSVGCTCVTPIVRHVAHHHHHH
Kind of assay: ELISA, coated IL-17A.

In another assay the target is T3, rat IL-17A (rat, UniProt Q61453 18-150, limits assumed).
T3 sequence (looked up): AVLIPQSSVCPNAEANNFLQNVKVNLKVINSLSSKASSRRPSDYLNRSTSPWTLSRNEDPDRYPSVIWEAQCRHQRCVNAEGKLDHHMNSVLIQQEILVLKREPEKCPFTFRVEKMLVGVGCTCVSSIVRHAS
The assay can be described thus: ELISA, coated IL-17A.

A further assay concerns the target T4, mouse IL-17A (mouse, UniProt Q62386 26-158).
T4 sequence (looked up): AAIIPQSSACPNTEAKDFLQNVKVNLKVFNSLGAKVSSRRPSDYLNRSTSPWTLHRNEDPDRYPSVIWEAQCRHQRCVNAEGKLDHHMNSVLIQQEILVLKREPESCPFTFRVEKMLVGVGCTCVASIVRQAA
Kind of assay: ELISA, coated IL-17A.

Assay [2] concerns the target T5, human IL-17F (human, UniProt Q96PD4 31-163).
T5 construct: GenBank AF384857, expressed in Hek293 as 6-His C-terminal tagged protein; also called hIL-17F; IL-17F-6HIS
T5 sequence: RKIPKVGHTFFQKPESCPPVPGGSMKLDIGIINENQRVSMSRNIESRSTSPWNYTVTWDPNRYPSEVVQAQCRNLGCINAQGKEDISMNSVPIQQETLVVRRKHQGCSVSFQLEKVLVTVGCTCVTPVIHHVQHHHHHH
The assay can be described thus: SPR, IL-17F-Nanobody complex over captured IL-17RC.
Description: (§2) The receptor (IL-17RA or IL-17RC) was captured via its human Fc-tail by an anti-human IgG-Fc antibody coated on the chip.

For a further assay, the target named is T6, mouse IL-17F (mouse, UniProt Q7TNI7 29-161).
T6 sequence (looked up): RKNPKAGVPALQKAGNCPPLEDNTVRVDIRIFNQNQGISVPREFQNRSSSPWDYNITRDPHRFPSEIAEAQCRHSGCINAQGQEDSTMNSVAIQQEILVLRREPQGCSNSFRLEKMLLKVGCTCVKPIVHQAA
The assay can be described thus: ELISA, coated IL-17F.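 Note: binding ELISA on coated antigen from various species, with bound Nanobodies revealed by an HRP-linked anti-myc antibody and esTMB substrate.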

Assay [3] deals with T5, human IL-17F. Kind of assay: ELISA, coated IL-17F.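 Note: binding ELISA on coated antigen from various species, with bound Nanobodies revealed by an HRP-linked anti-myc antibody and esTMB substrate.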
Protocol: as §1
The target in another assay is T7, rat IL-17F (rat, UniProt Q5BJ95 29-161).
T7 sequence (looked up): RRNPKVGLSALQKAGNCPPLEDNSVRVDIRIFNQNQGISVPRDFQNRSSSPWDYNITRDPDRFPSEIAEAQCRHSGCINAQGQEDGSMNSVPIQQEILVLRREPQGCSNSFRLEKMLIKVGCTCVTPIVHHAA
Kind of assay: ELISA, coated IL-17F.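 Note: binding ELISA on coated antigen from various species, with bound Nanobodies revealed by an HRP-linked anti-myc antibody and esTMB substrate.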

Assay [4] deals with T1, human IL-17A. The assay can be described thus: SPR, IL-17A-Nanobody complex over captured IL-17RA.
Description: as §2
Assay [5] addresses T8, human IL-17A (human, UniProt Q16552 24-155, biotinylated with Sulfo-NHS-LC-Biotin in the AlphaScreen assays only).
T8 construct: also called hIL-17A; recombinant human IL-17A
The assay can be described thus: AlphaScreen competition, hIL-17A - IL-17RA-Fc.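 Note: receptor Fc-fusion plus Acceptor and streptavidin Donor beads incubated with the mixture for 1 h at room temperature before reading.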
Protocol: (§3) To this mixture, the IL-17RA or IL-17RC Fc-fusions, Acceptor beads and the streptavidin Donor beads were added and further incubated for 1 hour at RT.

Assay [6] has as its target T9, human IL-17A/F heterodimer (human, UniProt Q16552 24-155; Q96PD4 31-163, limits assumed, biotinylated with Sulfo-NHS-LC-Biotin in the AlphaScreen assays only). The assay can be described thus: cell-based or functional assay.
The target of assay [7] is T10, human IL-17F (human, UniProt Q96PD4 31-163, biotinylated with Sulfo-NHS-LC-Biotin in the AlphaScreen assays only).
T10 construct: also called hIL-17F; recombinant human IL-17F
T10 sequence: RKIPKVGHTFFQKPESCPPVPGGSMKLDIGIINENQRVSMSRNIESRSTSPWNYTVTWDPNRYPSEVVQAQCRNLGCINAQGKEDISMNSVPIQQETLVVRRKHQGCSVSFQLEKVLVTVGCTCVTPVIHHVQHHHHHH
The assay can be described thus: AlphaScreen competition, hIL-17F - IL-17RC-Fc.
Protocol: as §3

The target of assay [8] is T8, human IL-17A. Kind of assay: AlphaScreen competition, hIL-17A - IL-17RC-Fc.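 Note: Read-out after 1 h at room temperature with the receptor Fc-fusion, Acceptor beads and streptavidin-coated Donor beads present.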
Protocol: as §3
Assay [9] has as its target T9, human IL-17A/F heterodimer. Kind of assay: SPR Biacore, hIL-17A/F on chip; periplasmic extract (*).
Target sequence in this assay (Q16552 24-155 limits assumed, one chain of several): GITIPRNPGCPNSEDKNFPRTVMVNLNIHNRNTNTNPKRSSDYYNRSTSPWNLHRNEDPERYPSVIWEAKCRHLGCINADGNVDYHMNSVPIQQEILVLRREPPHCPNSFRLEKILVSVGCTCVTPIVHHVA
Protocol: (§4) Off-rates of the periplasmic extracts containing anti-IL-17 Nanobodies were measured by Surface Plasmon Resonance (SPR) using a Biacore T100 instrument. […] Periplasmic extracts containing IL-17 neutralizing Nanobodies were injected for 2 minutes at a flow rate of 45 μl/min to allow binding to chip-bound antigen. Next, binding buffer without periplasmic extracts was sent over the chip at the same flow rate to allow spontaneous dissociation of bound Nanobody. From the sensorgrams obtained for the different periplasmic extracts koff-values (k₄) were calculated.
Assay [10] addresses T9, human IL-17A/F heterodimer. The assay can be described thus: AlphaScreen competition, hIL-17A/F - IL-17RC-Fc.
Target sequence in this assay (Q16552 24-155 limits assumed, chain 1 of 2, one chain of several): as the sequence (Q16552 24-155 limits assumed, one chain of several) above
Protocol: as §3
Assay [11] deals with T8, human IL-17A. Kind of assay: cell-based or functional assay.
Assay [12] has as its target T9, human IL-17A/F heterodimer. Kind of assay: AlphaScreen competition, hIL-17A/F - IL-17RA-Fc.
Target sequence in this assay (Q16552 24-155 limits assumed, chain 1 of 2, one chain of several): as the sequence (Q16552 24-155 limits assumed, one chain of several) above
Protocol: as §3
Assay [13] deals with T8, human IL-17A. Kind of assay: SPR Biacore, hIL-17A on chip; periplasmic extract (*).
Protocol: as §4
The target in assay [14] is T11, human IL-17A (human, UniProt Q16552 24-155).
T11 construct: secreted form made in Hek293 cells (GenBank U32659); also called hIL-17A; hIL17A
Kind of assay: AlphaScreen hIL-17A-IL-17RA; vs IL17MS13B03.
T11 sequence (Q16552 other isoform, or with tags, fused parts or gaps): as the sequence (Q16552 other isoform, or with tags, fused parts or gaps) above

Assay [15] has as its target T12, human IL-17F (human, UniProt Q96PD4 31-163).
T12 construct: made in Hek293 cells (GenBank AF384857); also called hIL-17F; hIL17F
T12 sequence: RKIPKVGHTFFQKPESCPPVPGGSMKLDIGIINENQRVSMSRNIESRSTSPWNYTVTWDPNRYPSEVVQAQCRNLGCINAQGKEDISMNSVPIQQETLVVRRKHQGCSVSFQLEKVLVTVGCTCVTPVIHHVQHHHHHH
The assay can be described thus: AlphaScreen hIL-17F-IL-17RC; vs IL17MS13B03.

The target in assay [16] is T11, human IL-17A. Kind of assay: SPR (Biacore) off-rate.
The target of assay [17] is T12, human IL-17F. Kind of assay: SPR (Biacore) off-rate.
Assay [18] addresses T13, human IL-17A/F heterodimer (human, UniProt Q16552 24-155; Q96PD4 31-163, limits assumed).
T13 construct: bought, made in E. coli (R&D Systems 5194-IL/CF); also called hIL-17A/F; hIL17A/F
The assay can be described thus: SPR (Biacore) off-rate.

Assay [19] has as its target T10, human IL-17F. The assay can be described thus: SPR Biacore, hIL-17F on chip; periplasmic extract (*); NB = no binding.

T13 sequence (Q16552 24-155 limits assumed, chain 1 of 2, one chain of several): as the sequence (Q16552 24-155 limits assumed, one chain of several) above
T8 sequence (Q16552 other isoform, or with tags, fused parts or gaps): as the sequence (Q16552 other isoform, or with tags, fused parts or gaps) above
Protocol for guinea pig IL-17A: as §1
Protocol for marmoset IL-17A: as §1
Protocol for mouse IL-17A: as §1
Protocol for mouse IL-17F: as §1
Protocol for rat IL-17A: as §1
Protocol for rat IL-17F: as §1

B1: 17C01 (VHH)
VHH: EVQLVESGGRLVQAGGSLRLPCAASGRTFTSYPMGWFRQAPGKEREFVAAISMSGDDAAYADFVRGRFTISRDDARNTVYLHMTSLKPEDTAVYYCAARTSYDGTYDYIDDYSYWGQGTQVTVSS
notes: Class 4
With B1, the OD with guinea pig IL-17A was 0.007 OD; in the assay with human IL-17A [1], 1.83 OD; with marmoset IL-17A, 1.84 OD; with rat IL-17A, 0 OD; with mouse IL-17A it was -0.001 OD; in the assay with mouse IL-17F, -0.0005 OD. Further, the figures for the OD with human IL-17F [3] and with rat IL-17F were 0.772 OD and 0.0025 OD, respectively. Also, the “% Biacore binding (IL-17F-NB)-IL-17RC” value in the assay with human IL-17F [2] was found to be 32.5%. Besides, in the assay with human IL-17A [4], the “% Biacore binding (IL-17A-NB)-IL-17RA” value was -2.01%.

B2: 09D10 (VHH)
VHH: EVQLVESGGGLVQAGGSLSLSCAASGSVFRIDVMRWHRQAPGKQREFLASIASGGTTNYADSVKGRFTISRDNAKNTVYLQMNSLKPEDTAVYYCGANAESGPYTYWGLGTQVTVSS
notes: Class 2 Nanobody (anti-IL-17A and IL-17A/F); not shown: c-myc, His6 tag
On to B2, for which the 50% inhibitory concentration (IC50) with human IL-17A [5] is 0.211 nM; with human IL-17F [7], 69.4 nM; with human IL-17A [8] it was 1.12 nM; in assay [10] it was 8.65 nM; in [12], 9.02 nM. Further, in [6], the “IL-17A/F-induced IL-6 production in HT-1080 cells, Emax” value amounted to 55%. Besides, the “IL-17A/F-induced IL-6 production in HT-1080 cells, IC50” value in [6] worked out at 124 nM. The koff in assay [9] came to 0.0017 s⁻¹; with human IL-17A [13], 0.00015 s⁻¹. The “IL-17A-induced IL-6 production in HT-1080 cells, Emax” value (“IL-17A-induced IL-6 production … Emax” below) with human IL-17A [11] was found to be 93.5%. Further, the “IL-17A-induced IL-6 production in HT-1080 cells, IC50” value (“IL-17A-induced IL-6 production … IC50” for short) with human IL-17A [11] was 8.5 nM.

B3: IL17MS3047 (VHH)
VHH: EVQLVESGGGLVQPGGSLRLSCAASGRANSINWFGWFRQAPGKEREFVAGIRWSDAYTEYAASVKGRFTISRDNSKNTVYLQMNSLRPEDTAVYYCVLDLSTVRYWGQGTLVTVSS
notes: variant of IL17MS13B03; Kabat numbering
B3: the “IC50 fold difference compared to WT” value with human IL-17A [14] turned out to be 1.1 fold; with human IL-17F [15] it was 0.7 fold. For the same molecule, the values for the koff (with human IL-17A [16]; in the assay with human IL-17F [17]; in assay [18]) were 0.000252 s⁻¹, 0.00348 s⁻¹ and 0.000538 s⁻¹, respectively.

B4: IL17MS3052 (VHH)
VHH: EVQLVESGGGSVQAGDSLRLSCAASGRASSINWFGWFRQTPGKEREFVAGIRWSDAYTEYANSVKGRFTISRDNAKNTVDLQMDSLKPEDTAVYYCVLDLSTVRYWGQGTQVTVSS
notes: as for B3
Regarding B4, the entries for the “IC50 fold difference compared to WT” value with human IL-17A [14] and in the assay with human IL-17F [15] were 0.9 fold and 0.5 fold, respectively. Moreover, the results for the koff (in the assay with human IL-17A [16]; with human IL-17F [17]; in assay [18]) were 0.000289 s⁻¹, 0.00439 s⁻¹ and 0.000518 s⁻¹, respectively.

B5: IL17MS3053 (VHH)
VHH: EVQLVESGGGSVQAGDSLRLSCAASGRANTINWFGWFRQTPGKEREFVAGIRWSDAYTEYANSVKGRFTISRDNAKNTVDLQMDSLKPEDTAVYYCVLDLSTVRYWGQGTQVTVSS
notes: as for B3
With B5, the “IC50 fold difference compared to WT” value worked out at 1.3 fold with human IL-17A [14] and 1.2 fold in the assay with human IL-17F [15]. The off-rate constant (koff) with human IL-17A [16] came out at 0.000258 s⁻¹; in the assay with human IL-17F [17], 0.00982 s⁻¹; in assay [18] it was 0.00052 s⁻¹.

B6: IL17MS3051 (VHH)
VHH: EVQLVESGGGSVQAGDSLRLSCAASGRAFSINWFGWFRQTPGKEREFVAGIRWSDAYTEYANSVKGRFTISRDNAKNTVDLQMDSLKPEDTAVYYCVLDLSTVRYWGQGTQVTVSS
notes: as for B3
As to B6, the entries for the “IC50 fold difference compared to WT” value with human IL-17A [14] and with human IL-17F [15] were 1.4 fold and 0.4 fold, respectively. Also, the off-rate constant (koff) was 0.000205 s⁻¹ in the assay with human IL-17A [16], 0.00216 s⁻¹ with human IL-17F [17] and 0.000396 s⁻¹ in [18].

B7: 01D06 (VHH)
VHH: EVQLVESGGGLVQAGGSLRLSCAADGRTFSTYGMTWFRQVPGKEREFVAHIPRSTYSPYYANSVKGRFTIARDDAKSTVYLQMNSLKPEDTAVYYCAVFTGGTYYVPTAYDYWGQGTQVTVSS
notes: as for B2
Regarding B7, the IC50 in the assay with human IL-17A [5] was determined as 0.618 nM; with human IL-17A [8] it was 1.52 nM; in assay [10], 0.198 nM; in assay [12] it was 0.401 nM. Besides, the “IL-17A/F-induced IL-6 production in HT-1080 cells, Emax” value in [6] was determined as 79.5%. In addition, in assay [6], the “IL-17A/F-induced IL-6 production in HT-1080 cells, IC50” value came out at 51.1 nM. In the assay with human IL-17F [19], the binding result was “no binding”. Further, the values for the koff (in assay [9]; with human IL-17A [13]) were 0.0013 s⁻¹ and 0.00097 s⁻¹, respectively. The “IL-17A-induced IL-6 production … Emax” value with human IL-17A [11] was found to be 98.3%. Further, the “IL-17A-induced IL-6 production … IC50” value in the assay with human IL-17A [11] amounted to 42.8 nM.

B8: 04A02 (VHH)
VHH: EVQLVESGGGLVQPGGSLRLSCAASRNINIINYMAWYRQAPGNQRELVAAMTSDATTEYADSVKGRFTISRDIPENTVYLQMNSLKPEDTAVYYCNAKGIWDYLGRRDFGDYWGQGTQVTVSS
notes: as for B2
For B8, the IC50 with human IL-17A [5] turned out to be 0.399 nM; in the assay with human IL-17A [8], 0.837 nM; in [10], 3.17 nM; in [12], 1.96 nM. Further, the “IL-17A/F-induced IL-6 production in HT-1080 cells, Emax” value in assay [6] was 67.6%. The “IL-17A/F-induced IL-6 production in HT-1080 cells, IC50” value in assay [6] is 70.4 nM. In the assay with human IL-17F [19], the binding result is “no binding”. The koff in assay [9] is 0.011 s⁻¹; with human IL-17A [13], 0.0013 s⁻¹. Moreover, the “IL-17A-induced IL-6 production … Emax” value with human IL-17A [11] came to 102%. Further, in the assay with human IL-17A [11], the “IL-17A-induced IL-6 production … IC50” value amounted to 12.6 nM.
